This is an account of results in US10100120B2, “Antibody which specifically binds to human CRTH2” (KYOWA HAKKO KIRIN CO., LTD, priority 2015, dated 2018).

This assay relates to differentiation-induced human mast cells. The assay is described as follows: Reactivity against differentiation-induced human mast cells. The class given is binding. As to conditions: mast cells stimulated by IgE and crosslinking antibody; antibody 10 μg/mL; FIG. 14. On the procedure:
Mast cells were prepared according to the method described in Nature Protocols 2006, 1(4), 2178 to 2183. The mast cells after 11 weeks from the start of differentiation induction were washed with SM and seeded in a 96-well plate such that each well had 5×10^4 cells, and PE anti-human CD203c (E-NPP3) Antibody (Biolegend Inc.), Brilliant Violet 421 (trademark) anti-human CD117 (c-kit) Antibody (Biolegend Inc.), and Anti-Human Fc epsilon Receptor I alpha (FcεR1) PE (eBioscience) were added thereto to cause a reaction at 4° C. for 1 hour. After the cells were washed again, the cells were suspended with SM, and the fluorescent intensity was analyzed by flow cytometry (BD Biosciences, FACS CantoII). […]
After the cells were washed, streptavidin, Alexa Fluor 647 conjugate (Molecular Probes) diluted with SM was added to wells to which biotin-labeled LV0HV1, hu19A2 v52, ch8B1 v1, ch3C12, or ch31A5 was added, goat anti-Rat IgG Alexa 647 (Molecular Probes) diluted with SM was added to wells to which BM16 was added, and goat anti-Mouse IgG Alexa 647 (Molecular Probes) diluted with SM was added to wells to which 301108 was added at a final concentration of 10 μg/mL to cause a reaction at 4° C. for 40 minutes. After the cells were washed again, the cells were suspended with SM, and the fluorescent intensity was analyzed by flow cytometry (BD Biosciences, FACS CantoII).

B1: LV0HV1: humanized Lym2 antibody, VL LV0 (SEQ ID NO: 33), VH HV1 (SEQ ID NO: 51) (antibody, V domains shown)
VH: EVQLVESGGGVVQPGRSLRLSCAASGFTFSNYYMAWVRQAPGKGLEWVATISYDGSSTYYRDSVKGRFTISRDNAKNSLYLQMNSLRAEDTATYYCARHRGYYYSGAGYFDYWGQGTMVTVSS
VL: DIVMTQTPLSLPVTPGESASISCRSSQSLEYSDGYTYLEWYLQKPGQSPQVLIYGVSNRFSGVPDRFSGSGSGTDFTLKISRVEAEDVGVYYCFQATHDPLTFGQGTKLEIK
In the case of B1, the “reactivity against mast cells” value was “did not exhibit reactivity”.
